Measurements reported in patent publication US20220259593A1, “CONTROL OF MAMMALIAN GENE DOSAGE USING CRISPR” (The Regents of the University of California, priority 2019, published 2022).

System: K562 CRISPRi cells
Experiment: Constant region variant library pooled growth screen, K562
Assay type: cell-based, human
How it was run: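 Growth screens in K562 CRISPRi cells were harvested 4-8 days post-selection at >2000× library coverage. Each variant's phenotype was referenced to the unmodified constant region with the same targeting sequence.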

[1] = sgRNA constant region variants, activity relative to the original, un-modified constant region cr995
[2] = sgRNA constant region variant, activity relative to unmodified constant region cr995, mean CRISPRi activity

Row | Molecule | Mean relative activity [1] | Mean relative activity [2]
1 | cr320 (nucleic acid, listed as DNA, chemistry not fully specified) guide: GTTTAAGAGCTAAGCTGGAAACAGCATAGCATGTTTAAATAAGGCTAGTCCGTTATCAACTTGAGAAAGTGGCACCGAGTCGGTGCT | 1.035 | 
2 | cr952 (nucleic acid, listed as DNA, chemistry not fully specified) guide: GTTTAAGAGCTAAGCTGGAAACAGCATAGCTAGTTTAAATAAGGCTAGGCCGTAATCAACTTGAAAAAGTGGCACCGAGTCGGTGCT | 0.02621 | 
3 | cr950 (nucleic acid, listed as DNA, chemistry not fully specified) guide: GTTTAAGAGCTAAGCTGGAAACAGCATAGCTAGGTTAAATAAGGCTAGTCCGTGATCAACTTGAAAAAGTGGCACCGAGTCGGTGCT | 0.0224 | 
4 | cr935 (nucleic acid, listed as DNA, chemistry not fully specified) guide: GTTTAAGAGCTAAGCTGGAAACAGCATAGCAAGTTTAAATGAGGCTAGTCCGTTATCAACTTGACAAAGTGGCACCGAGTCGGTGCT | 0.02413 | 
5 | cr737 (nucleic acid, listed as DNA, chemistry not fully specified) guide: GTTTAAGAGCTAAGCTGGAAACAGCATAGCAAGTTTAAATAAGGCTAGTCCGTTATCAACTTGAAAAAGTGGCAGGCTGTGGCTGCT | 0.02539 | 
6 | cr633 (nucleic acid, listed as DNA, chemistry not fully specified) guide: GTTTAAGAGCTAAGCTGGAAACAGCATGGCAATTTTAAATACGGCTAGTCCGTTATCAACTTGAAAAAGTGGCACCGAGTCGGTGCT | 0.02445 | 
7 | cr080 (nucleic acid, listed as DNA, chemistry not fully specified) guide: TTTTTAGAGCTAAGCTGGAAACAGCATAGCAAGTTTAAATAAGGCTAGTCCGTTATCAACTTGAAAAAGTGGCACCGAGTCGGTGCT | 0.02323 | 
8 | cr680 (nucleic acid, listed as DNA, chemistry not fully specified) guide: GTTTAAGAGCTAAGCTGGAAACAGCATAGCAAGTTTAAATAACGCTAGTCGGTTATCAACATGAAAATGTGGCTCCGAGTCGGAGCT |  | 0.02086
9 | cr496 (nucleic acid, listed as DNA, chemistry not fully specified) guide: GTTTAAGAGCTAAGCTGGAAACAGCATAACAAGTTTAAATAAGGCTAGTCCTTTATCAACTTGAAAAAGTGGCACCGAGACGGTGCT |  | 0.02078
10 | cr043 (nucleic acid, listed as DNA, chemistry not fully specified) guide: GGTTTAGAGCTAAGCTGGAAACAGCATAGCAAGTTTAAATAAGGCTAGTCCGTTATCAACTTGAAAAAGTGGCACCGAGTCGGTGCT | 0.0245 | 
11 | cr492 (nucleic acid, listed as DNA, chemistry not fully specified) guide: GTTTAAGAGCTAAGCTGGAAACAGCATAGCAAGTTTAAATAAGGCTAGTCCGTTCTCAACTTGAAAAAGTGGCACCGAGTCGGTGCT | 1.034 | 
12 | cr745 (nucleic acid, listed as DNA, chemistry not fully specified) guide: GTTTAAGAGCTAAGCTGGAAACAGCATAGCAAGTTTAAATAAAGCTAGTCCGTTATCAACTTGAAAAAGTGGCACCGAGTCGGTGCT | 0.02631 | 
13 | cr581 (nucleic acid, listed as DNA, chemistry not fully specified) guide: GTTTAAGAGCTAAGCTGGAAACAGCATAGCAAGTTTTAATAAGGCTAGTCCGTTATCAACTTGAAAAAGTGGCACCGAGTCGGTGCT | 0.02488 | 
14 | cr418 (nucleic acid, listed as DNA, chemistry not fully specified) guide: GTTTAAGAGCTAAGCTGGAAACAGCATAGCAAGGTTAAATAAGGCTAGTCCGTTATCAACATGAAAATGTGGCACCGAGTCGGTGCT |  | 0.02069
15 | cr386 (nucleic acid, listed as DNA, chemistry not fully specified) guide: GTTTAAGAGCTAAGCTGGAAACAGCATAGCAAGGTTAAATAAGGCTAGTCCGTTATCAACCTGAAAAGGTGGCACCGAGTCGGTGCT | 0.02428 | 
16 | cr305 (nucleic acid, listed as DNA, chemistry not fully specified) guide: GTTTAAGAGCTAAGCTGGAAACAGCATAGCAAGGTTAAATAAGGCTAGTCCGTTATCAACTTGAAAAAGTGGCCCCGAGTCGGGGCT |  | 0.02073
17 | cr454 (nucleic acid, listed as DNA, chemistry not fully specified) guide: GTTTAAGAGCTAAGCTGGAAACAGCATAGCAAGTTTAAATAATGCTAGTCAGTTATCACCTTGAAAAAGGGGTACCGAGTCGGTACT | 0.02618 | 
18 | cr961 (nucleic acid, listed as DNA, chemistry not fully specified) guide: GTTTAAGAGCTAAGCTGGAAACAGCATAGCAAGTTTAAATAAGGCTAGTCCGTTATCAACTCGAAAGAGTGCAACCGAGTCGGTTGT | 1.088 | 
19 | cr547 (nucleic acid, listed as DNA, chemistry not fully specified) guide: GTTTAAGAGCTAAGCTGGAAACAGCATAGCAAGTTTAAATGAGGCTAGTCCGTTATCAACTTGAAAAAGTGGCACCGAATCGGTGCT | 0.02194 | 
20 | cr186 (nucleic acid, listed as DNA, chemistry not fully specified) guide: GTTTAAGAGCTAAGCTGGAAACAGCATAGCAAGGTTAAATAAGGCTAGTCCGTTATCAAGTTGAAAAACTGGCACCGAGTCGGTGCT |  | 0.0199
21 | cr958 (nucleic acid, listed as DNA, chemistry not fully specified) guide: GTTTAAGAGCTAAGCTGGAAACAGCATAGCAACTTTAAATAAGGCTAGTCCGTTATCAACTTGAAAAAGTGGCACTGAGTCAGTGCT | 0.0249 | 
22 | cr986 (nucleic acid, listed as DNA, chemistry not fully specified) guide: GTTTAAGAGCTAAGCTGGAAACAGCATAGCAAGTTTAAATAAGGCTAGGCCGTTATCAACTTGAAAAAGTGGCACCGAGTCGGTGCT | 0.0258 | 
23 | cr032 (nucleic acid, listed as DNA, chemistry not fully specified) guide: GATTGAGAGCTAAGCTGGAAACAGCATAGCAAGTTTAAATAAGGCTAGTCCGTTATCAACTTGAAAAAGTGGCACCGAGTCGGTGCT | 0.02646 | 
24 | cr946 (nucleic acid, listed as DNA, chemistry not fully specified) guide: GTTTAAGAGCTAAGCTGGAAACAGCATAGCAAGTTTAAATAACGCTAGTCGGTTATCAACTGGAAACAGTGGCGCCGAGTCGGCGCT | 0.0237 | 
25 | cr542 (nucleic acid, listed as DNA, chemistry not fully specified) guide: GTTTAAGAGCTAAGCTGGAAACAGCATAGCAAGATTAAATAAGGCTAGTCCGTCATCGACTTGAAAAAGTGGCACCGAGTCGGTGCT | 0.02115 | 
26 | cr410 (nucleic acid, listed as DNA, chemistry not fully specified) guide: GTTTAAGAGCTAAGCTGGAAACAGCATAGCAAGTTTAAATAAGGCTAGTCCGTTATCAGCTTGAGAAAGCGGCACCGAGTCGGTGCT | 1.034 | 
27 | cr700 (nucleic acid, listed as DNA, chemistry not fully specified) guide: GTTTAAGAGCTAAGCTGGAAACAGCATAGCAAGTTTAAATTAGGCTAGTCCGTTATCAACTTGAAAAAGTGGCACCGCGTCGGTGCT | 0.02103 | 
28 | cr030 (nucleic acid, listed as DNA, chemistry not fully specified) guide: GCTTTAGAGCTAAGCTGGAAACAGCATAGCAAGTTTAAATAAGGCTAGTCCGTTATCAACTTGAAAAAGTGGCACCGAGTCGGTGCT | 0.02089 | 
29 | cr922 (nucleic acid, listed as DNA, chemistry not fully specified) guide: GTTTAAGAGCTAAGCTGGAAACAGCATAGCAAGGTTAAATAAGGCTAGTCCGTTATCAACTTGAAAAAGTGGCAACGAGTCGTTGCT | 0.02327 | 
30 | cr951 (nucleic acid, listed as DNA, chemistry not fully specified) guide: GTTTAAGAGCTAAGCTGGAAACAGCATAGCAAGTTTAAATAAGGCTAGTCCGTTATCAACTTGAGAAAGTGGCTCCGAGTCGGAGCT | 1.034 | 
